Measured values published in paper PMC3581488.
Where a chain is given by its changes, count along the chain named. In names and notes the source's numbering stands.

T1: Purified bovine tubulin, Q6B856
T1 chain: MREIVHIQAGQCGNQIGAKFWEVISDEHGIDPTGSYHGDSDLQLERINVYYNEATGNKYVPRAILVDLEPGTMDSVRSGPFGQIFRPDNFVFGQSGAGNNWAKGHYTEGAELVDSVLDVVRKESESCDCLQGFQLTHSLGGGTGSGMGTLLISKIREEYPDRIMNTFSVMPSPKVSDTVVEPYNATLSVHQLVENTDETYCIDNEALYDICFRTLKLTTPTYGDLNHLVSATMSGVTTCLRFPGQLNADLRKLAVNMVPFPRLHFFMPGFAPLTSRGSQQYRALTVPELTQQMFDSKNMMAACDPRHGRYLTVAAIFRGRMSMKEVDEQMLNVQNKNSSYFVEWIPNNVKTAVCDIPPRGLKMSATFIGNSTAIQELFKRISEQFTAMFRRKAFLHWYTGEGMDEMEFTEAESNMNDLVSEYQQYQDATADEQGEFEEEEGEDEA

B1: GST fusion protein encoding the C-terminus (CT) of the angiotensin II type 1 receptor (AT1R) K307E (protein)
chain: LGEKFKKYFLQLLKYIPPKAKSHSSLSTKMSTLSYRPSDNMSSSAKKPASCFEVE
B2: GST fusion protein encoding the C-terminus (CT) of the angiotensin II type 1 receptor (AT1R) K307E; K308E; K310E; K311E (protein)
chain: B1 chain with K4E, K6E, K7E
B3: GST fusion protein encoding the C-terminus (CT) of the angiotensin II type 1 receptor (AT1R) K308E (protein)
chain: B1 chain with E3K, K4E

What was measured:
Test in all cases: GST fusion protein pulldown assay, quantified immunoblot (α-tubulin)
Purified bovine tubulin = Purified bovine tubulin (UniProt Q6B856); settings: parent: est. 100, read off a plot
[1] = molecular target: T1, Purified bovine tubulin, Q6B856; settings: chain shown with the change
[2] = molecular target: Tubulin from rat brain extracts, P68370;Q3KRE8; settings: chain shown with the change; rat brain cytosolic extracts; parent: est. 100; read off a plot
[3] = parent: est. 100, read off a plot

Row | Molecule | percent of parent (Purified bovine tubulin) | percent of parent [1, 3] | percent of parent [2] | percent of parent ([1]; purified tubulin, parent: est. 100, read off a plot)
1 | GST fusion protein encoding the C-terminus (CT) of the angiotensin II type 1 receptor (AT1R) K310E | 20 % of AT1R CT |  |  | 
2 | GST fusion protein encoding the C-terminus (CT) of the angiotensin II type 1 receptor (AT1R) K311E | 52 % of AT1R CT |  |  | 
3 | B1 |  | 83 % of AT1R CT |  | 
4 | B2 |  | 5 % of AT1R CT | 12 % of AT1R CT | 4 % of AT1R CT
5 | B3 |  | 100 % of AT1R CT |  | 
